From paper PMC2806920

Legend:
[1] = biological target: Truncated recombinant LRRK2 wild-type (aa 970-2527) (human) (UniProt Q5S007)
[2] = biological target: Truncated recombinant LRRK2-G2019S (aa 970-2527) (human) (UniProt Q5S007)

Substance “4E-BP (eukaryotic initiation factor 4E (eIF4E)-binding protein), His6-tagged 4E-BP1 (from UniProt Q13541 1-118) (natural protein)” has a Km for 4E-BP of its phosphorylation by LRRK2 (in vitro kinase assay, 33P incorporation, 12 nM LRRK2, 1.5-12 µM 4E-BP, Michaelis-Menten fit) [1] of 2.69 µM and a Km for 4E-BP of its phosphorylation by LRRK2-G2019S (in vitro kinase assay, 33P incorporation, 12 nM LRRK2, 1.5-12 µM 4E-BP, Michaelis-Menten fit) [2] of 2.87 µM.
